Measured values: paper PMC7014971

Target: full-length human BRAF, wild type (insect cell-produced) (human) (UniProt P15056)
Assay: SEC-MALS

UniProt P15056, sequence (P15056 whole entry): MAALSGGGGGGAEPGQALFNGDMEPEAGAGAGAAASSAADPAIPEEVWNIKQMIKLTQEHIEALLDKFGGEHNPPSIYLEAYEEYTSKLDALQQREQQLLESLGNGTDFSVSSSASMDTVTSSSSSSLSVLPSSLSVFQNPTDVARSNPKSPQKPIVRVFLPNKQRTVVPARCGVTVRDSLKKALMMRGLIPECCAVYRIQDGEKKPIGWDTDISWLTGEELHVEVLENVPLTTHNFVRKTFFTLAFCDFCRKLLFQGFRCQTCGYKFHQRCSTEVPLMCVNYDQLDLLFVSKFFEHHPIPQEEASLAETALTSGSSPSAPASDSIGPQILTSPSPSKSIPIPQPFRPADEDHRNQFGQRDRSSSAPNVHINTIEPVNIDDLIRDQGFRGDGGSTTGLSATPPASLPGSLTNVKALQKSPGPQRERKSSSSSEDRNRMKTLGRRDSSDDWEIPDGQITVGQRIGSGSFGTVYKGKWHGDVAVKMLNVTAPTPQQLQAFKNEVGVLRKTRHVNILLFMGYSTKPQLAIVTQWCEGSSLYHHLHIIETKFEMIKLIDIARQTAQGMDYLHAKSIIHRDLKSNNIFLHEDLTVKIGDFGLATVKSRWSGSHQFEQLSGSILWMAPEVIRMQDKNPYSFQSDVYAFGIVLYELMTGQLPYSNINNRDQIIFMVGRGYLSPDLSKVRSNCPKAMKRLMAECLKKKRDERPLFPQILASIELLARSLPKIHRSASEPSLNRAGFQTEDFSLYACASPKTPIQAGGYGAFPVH

For “insect cell-derived 14-3-3ε,ζ dimer (complex)”, the stoichiometry N (14-3-3 dimer per BRAF) was 1.
